The target in experiment [1] is T1, recombinant human MICA extracellular domain recombinant-Fc protein (MICA*019 allele) (human, UniProt Q29983 24-297).
T1 construct: Bought from R&D Systems; also called MICA*019-Fc; MICA-Fc; not shown: Fc part of the bought fusion protein (R&D Systems)
T1 chain: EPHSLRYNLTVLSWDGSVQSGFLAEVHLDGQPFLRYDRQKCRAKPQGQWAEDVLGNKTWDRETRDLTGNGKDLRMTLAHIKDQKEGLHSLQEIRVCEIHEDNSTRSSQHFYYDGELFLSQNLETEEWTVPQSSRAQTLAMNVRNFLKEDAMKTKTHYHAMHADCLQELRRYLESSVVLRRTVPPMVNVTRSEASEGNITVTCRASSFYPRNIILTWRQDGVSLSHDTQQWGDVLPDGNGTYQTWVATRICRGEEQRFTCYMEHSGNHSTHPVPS
Briefly: SPR Biacore T100, biotinylated antibody captured on CAP chip, MICA protein injected. As for the experimental part:
(§1) The binding of 9C10, 20C6 and 16A8 to either recombinant human MICA extracellular domain recombinant protein monomers or dimers (MICA*019 allele-Fc protein or MICA*001-His protein) as well as other NKG2D ligands MICB and ULBP1-2 was analyzed by Surface Plasmon Resonance (SPR) using a Biacore T100 apparatus to obtain monovalent and bivalent affinity, respectively. Biotinylated anti-MICA antibodies were injected at a constant rate of 10 μl/min over the Sensor Chip CAP flow-cells comprising Biotin CAPture Reagent. MICA-Fc or MICA-His protein, MICB-Fc, ULBP1-Fc or ULBP2-Fc protein is then injected successively (range of concentrations between 0.01-100 nM), with regeneration between injections, and in increasing order over two flowcells simultaneously. Curves are fitted using Biacore T100 Evaluation software.
(§2) (a) General Biacore T100 methods. SPR measurements were performed on a Biacore T100 apparatus (Biacore GE Healthcare) at 25° C. In all Biacore experiments HBS-EP+ buffer (Biacore GE Healthcare) or 10 mM sodium acetate pH 7.4, 150 mM NaCl, 0.05% P20 served as running buffer and sensorgrams were analyzed with Biaevaluation 4.1 and Biacore T100 Evaluation software. Recombinant human and mouse TLR3 were purchased from R&D Systems.
For orientation: Surface plasmon resonance follows binding to a sensor surface in real time, without labels.

The target in experiment [2] is T2, MICA*001 extracellular domain α3 recombinant protein (human, UniProt Q29983 205-297).
T2 construct: also called MICA extracellular domain α3 recombinant protein; α3 domain of MICA
T2 sequence: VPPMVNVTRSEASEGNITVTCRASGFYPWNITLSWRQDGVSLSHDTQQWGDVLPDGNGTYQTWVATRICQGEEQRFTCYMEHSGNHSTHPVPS
Briefly: ELISA, 3 µg/ml recombinant protein coated. As for the experimental part: 3 μg/ml of the indicated MICA recombinant proteins were coated overnight in 96-well plates in PBS 1× at 4° C. All subsequent steps were performed at room temperature. After washes with PBS 1×/Tween 0.05%, plates were saturated for an additional 2 hours in PBS 1×/BSA 1%. Two additional washes were performed prior adding the tested anti-MICA mAb in PBS 1×/BSA 1% for 2 hours. Antibodies were washed and a horseradish peroxidase conjugated goat polyclonal anti-mouse IgG (GAM-HRP) in PBS 1×/BSA 1% was added for 1 hour. Final washing steps were performed and TMB substrate was added to reveal the ELISA (5 to 20 min in the dark) and 1M HCl was added to stop the enzymatic reaction. O.D. was measured at 450 nm.
9C10 binds to MICA extracellular domain recombinant-protein but not MICA extracellular domain α3 recombinant protein. Antibody 16A8, however, bound to both MICA extracellular domain recombinant protein […] MICA extracellular domain α3 recombinant protein. Therefore, it can be concluded from this ELISA experiment that the binding site on MICA of 9C10 antibodies includes the α1 and/or α2 domains while antibody 16A8 binds to MICA within the α3 domain. […] BAMO1 is a commercially available anti-MICA specific for α1α2 domain and BAMO3 is a commercially available anti-MICA specific for α3 domain.
(In general: In an ELISA, binding on a coated surface is turned into a signal by an enzyme label.)

In the next experiment the target is T3, ULBP2-Fc protein (UniProt Q9BZM5 26-217, limits assumed).
T3 construct: also called ULPB2; not shown: Fc part
T3 sequence (looked up): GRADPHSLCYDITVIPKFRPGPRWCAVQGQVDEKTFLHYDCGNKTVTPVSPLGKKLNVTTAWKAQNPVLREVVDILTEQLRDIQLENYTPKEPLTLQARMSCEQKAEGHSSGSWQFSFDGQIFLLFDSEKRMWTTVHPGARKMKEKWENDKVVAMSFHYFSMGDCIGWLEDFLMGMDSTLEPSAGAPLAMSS
Briefly: SPR Biacore T100, biotinylated antibody captured on CAP chip, Fc protein injected. The method, then:
as §1, §2

A further experiment deals with T4, ULBP1-Fc protein (UniProt Q9BZM6 26-216, limits assumed).
T4 construct: also called ULPB1; not shown: Fc part
T4 sequence (looked up): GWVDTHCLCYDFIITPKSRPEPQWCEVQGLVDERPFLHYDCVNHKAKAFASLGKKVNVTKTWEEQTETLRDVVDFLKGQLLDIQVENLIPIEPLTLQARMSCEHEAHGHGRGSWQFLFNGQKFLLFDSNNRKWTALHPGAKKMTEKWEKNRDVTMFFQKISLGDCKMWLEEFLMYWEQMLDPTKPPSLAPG
The experiment is described as above. The method, then:
as §1, §2

Experiment [3] has as its target T5, MICA*004 expressed on C1R transfectant cells (human, UniProt Q29983 24-297, Glycosylated on cells; the letters do not carry this.).
T5 construct: also called C1R-MICA*004; C1R-MICA*04
T5 chain: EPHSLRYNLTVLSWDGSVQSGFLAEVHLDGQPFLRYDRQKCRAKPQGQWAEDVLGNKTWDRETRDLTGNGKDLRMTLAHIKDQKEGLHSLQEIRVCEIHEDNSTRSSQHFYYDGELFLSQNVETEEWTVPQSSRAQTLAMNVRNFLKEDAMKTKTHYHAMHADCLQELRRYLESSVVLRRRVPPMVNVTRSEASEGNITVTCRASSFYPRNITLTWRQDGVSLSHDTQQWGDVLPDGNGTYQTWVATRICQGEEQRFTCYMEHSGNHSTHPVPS
Briefly: flow cytometry, MFI against antibody concentration on C1R-MICA*04 cells. The method, then: The binding of antibodies obtained from the first and second immunization series (including 9C10, 20C6 and 16A8) were tested for binding to MICA-expressing CR1 transfectant cells C1R-MICA*001, C1R-MICA*004, C1R-MICA*007 and C1R-MICA*008 (Pr. A. Steinle, Eberhard-Karls University Tuebingen, Germany) described in Salih et al. (2003) Blood 102(4): […]. Binding was analyzed by flow cytometry.
Cells were harvested and stained in PBS 1×/BSA 0,2%/EDTA 2 mM buffer during 30 minutes at 4° C. using a dose-range of the anti-MICA mAbs. After two washes in staining buffer, cells were stained for 30 min at 4° C. with goat anti-mouse (H+L)-PE polyclonal antibodies (1/200). After two washes, stainings were acquired on a BD FACS Canto II and analyzed using the FlowJo software.
Background: Flow cytometry measures light scatter and fluorescence of single cells or particles in a stream.

B1: antibody 16A8 (antibody, V domains shown)
VH: EVQLVESGGGLVKPGGSLKLSCAASGFTFSRYAMSWVRQTPEKRLEWVATIFSGGSYTYYPDSVKGRFTISRDNANNTLYLQMSSLKAEDTAMYFCARPNWERTFDYWGQGTTLTVSS
VL: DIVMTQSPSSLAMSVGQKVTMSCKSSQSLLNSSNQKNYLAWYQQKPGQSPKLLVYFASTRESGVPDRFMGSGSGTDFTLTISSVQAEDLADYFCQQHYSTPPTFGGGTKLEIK
notes: Murine hybridoma antibody of IgG2a isotype as tested; also called 16A8-Biot
With B1, the binding result in experiment [1] is reported as “binds”.

B2: antibody 9C10 (antibody, V domains shown)
VH: QVQLQQPGAELVRPGTSVNLSCKASGYSFTRYWMNWVKQRPGQGLEWIGMIHPSDSETRLNQKFKDKATLTVDKSSSTAYMQLSSPTSEDSAVYYCGYGNFFYVMDYWGQGTSVTVSS
VL: DILLTQSPAILSVSPGERVSFSCRASQSIGTSIHWYQQRTNGSPRLLIKFASESISGIPSRFSGSGSGTDFTLNINSVESEDIADYYCQQSNFWPFTFGSGTKLEVK
modifications: Biotinylated when captured in the SPR assays (9C10-Biot); the sites are not given.
notes: Murine hybridoma antibody of IgG2b isotype as tested; also called 9C10-Biot
B2: the values for the binding result (in experiment [2]; with ULBP2-Fc protein; with ULBP1-Fc protein) were “no binding”, “no binding (tested: 0.01-100 nM)” and “no binding (tested: 0.01-100 nM)”, respectively. Further, in experiment [3], the half-maximal effective concentration (EC50 (read off the curve)) (in general, the concentration that produces a half-maximal response) is roughly 0.2 µg/mL.

The values above are taken from patent US20150191542A1 (INNATE PHARMA S A, published 2015).
